Results taken from US20120294945A1.
Ends that are not written are not given here. HA = hyaluronic acid (HA-TBA), bound to the peptide's terminal amine

Target: Flt1-Fc (R&D systems, Minneapolis, Minn.) (UniProt P17948)
Test: competition ELISA, VEGF165-coated plate, 500 ng/mL Flt1-Fc, conjugate at rising peptide concentration

Chain of Flt1-Fc (R&D systems, Minneapolis, Minn.) (P17948 27-756 limits assumed): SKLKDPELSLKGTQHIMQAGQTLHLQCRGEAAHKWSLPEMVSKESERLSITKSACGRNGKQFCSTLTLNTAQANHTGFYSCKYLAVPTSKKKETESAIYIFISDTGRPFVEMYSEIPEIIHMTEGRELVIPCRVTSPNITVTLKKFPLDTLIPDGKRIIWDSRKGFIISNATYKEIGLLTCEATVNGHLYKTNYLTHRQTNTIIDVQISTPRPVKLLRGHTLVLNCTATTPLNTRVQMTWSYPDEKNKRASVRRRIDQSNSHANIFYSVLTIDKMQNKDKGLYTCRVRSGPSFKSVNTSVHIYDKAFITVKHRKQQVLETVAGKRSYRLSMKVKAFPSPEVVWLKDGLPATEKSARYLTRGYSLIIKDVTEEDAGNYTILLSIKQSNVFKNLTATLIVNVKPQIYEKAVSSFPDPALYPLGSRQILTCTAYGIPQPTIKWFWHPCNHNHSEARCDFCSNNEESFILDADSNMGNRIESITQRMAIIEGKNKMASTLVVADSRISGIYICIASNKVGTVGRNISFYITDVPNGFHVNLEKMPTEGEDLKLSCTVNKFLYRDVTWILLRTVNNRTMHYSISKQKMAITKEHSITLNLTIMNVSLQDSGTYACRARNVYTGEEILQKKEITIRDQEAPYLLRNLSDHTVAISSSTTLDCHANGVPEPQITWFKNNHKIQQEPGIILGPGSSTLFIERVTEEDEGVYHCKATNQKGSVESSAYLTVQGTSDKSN

B1: hyaluronic acid-peptide conjugate with a lower peptide content of Preparation Example 3 (HA-GGNQWFI) (peptide)
peptide: {HA}-GGNQWFI
modifications: also: 20 peptides conjugated per HA-TBA molecule
inhibition of the bonding between VEGF165 and Flt1-Fc (luminescence, positive control = 100%): 32%
